Some results are limits rather than exact numbers.

Data on eleven substances can be found in patent US20240132578A1.

What all share (assay): cell-based or functional assay
The target of assay [1] is HIV-1 92UG024 envelope (Env) on pseudovirus (HIV-1).
The target in assay [2] is HIV-1 Env of isolate MGRM-A-006 (clade A pseudovirus) (HIV-1).
Assay [3] concerns the target HIV-1 92RW020 envelope (Env) on pseudovirus (HIV-1).
The target in assay [4] is HIV-1 Env of isolate 92BR020, clade B (HIV-1).
In assay [5] the target is HIV-1 Env of isolate MGRM-D-028 (clade D pseudovirus) (HIV-1).
The target of assay [6] is HIV-1 Env of isolate MGRM-A-007 (clade A pseudovirus) (HIV-1).
Assay [7] concerns the target HIV-1 Env of isolate 92UG046 (clade D pseudovirus) (HIV-1).
In assay [8] the target is HIV-1 MGRM-AG-013 Env (pseudovirus) (HIV-1).
For assay [9], the target named is HIV-1 envelope glycoprotein (Env) of isolate MGRM-C-008 (HIV-1).
Assay [10] deals with HIV-1 Env of isolate MGRM-A-008 (clade A pseudovirus) (HIV-1).
The target in assay [11] is HIV-1 Env of isolate MGRM-D-019 (clade D pseudovirus) (HIV-1).
The target of assay [12] is HIV-1 Env of pseudovirus MGRM-G-011 (HIV-1).
Assay [13] addresses HIV-1 Env of isolate 92RW020 (Clade A) (HIV-1).
Assay [14] addresses HIV-1 Env of isolate MGRM-A-002 (clade A pseudovirus) (HIV-1).
The target in assay [15] is HIV-1 Env of isolate 6535.3 (Acute), clade B (HIV-1).
Assay [16] addresses HIV-1 NL43 envelope (Env) on pseudovirus (HIV-1).
In assay [17] the target is HIV-1 Env of pseudovirus MGRM-D-016 (HIV-1).
Assay [18] has as its target HIV-1 Env of pseudovirus MGRM-F1-014 (HIV-1).
For assay [19], the target named is HIV-1 Env of pseudovirus MGRM-D-021 (HIV-1).
Assay [20] concerns the target HIV-1 envelope glycoprotein (Env) of isolate MG RM-AG-012 (HIV-1).
Assay [21] has as its target HIV-1 Env of pseudovirus MGRM-D-012 (HIV-1).
Assay [22] has as its target HIV-1 Env of isolate MGRM-C-019 (subtype C), on pseudovirus (HIV-1).
Assay [23] has as its target HIV-1 Env of pseudovirus isolate MGRM-Chronic-B-003 (clade B) (HIV-1).
For assay [24], the target named is HIV-1 Env of pseudovirus isolate MGRM-Chronic-B-002 (clade B) (HIV-1).
Assay [25] deals with HIV-1 Env of isolate 92RW009 (subtype A) (HIV-1).
The target of assay [26] is HIV-1 Env of isolate MGRM-C-014 (subtype C), on pseudovirus (HIV-1).
Assay [27] deals with HIV-1 92TH021 envelope protein (Env) on pseudovirus (HIV-1).
Assay [28] has as its target HIV-1 Env of isolate CMU02 (subtype AE) (HIV-1).
The target of assay [29] is HIV-1 JR-CSF Env T394A (HIV-1 (isolate JR-CSF)) (UniProt P20871).
In assay [30] the target is HIV-1 Env of isolate MGRM-D-012 (pseudovirus) (HIV-1).
For assay [31], the target named is HIV-1 Env of isolate MGRM-D-019 (pseudovirus) (HIV-1).
Assay [32] addresses HIV-1 Env of isolate MGRM-C-005 (HIV-1).
Assay [33] has as its target HIV-1 Env of isolate MGRM-D-018 (pseudovirus) (HIV-1).
Assay [34] has as its target HIV-1 Env of isolate MGRM-F1-013 (HIV-1).
Assay [35] deals with HIV-1 Env of isolate MGRM-D-008 (pseudovirus) (HIV-1).
In assay [36] the target is HIV-1 Env of isolate MGRM-F1-016 (HIV-1).
The target of assay [37] is HIV-1 Env of isolate MGRM-A-001 (pseudovirus) (HIV-1).
For assay [38], the target named is HIV-1 JR-CSF Env I420A (HIV-1 (isolate JR-CSF)) (UniProt P20871).
Assay [39] concerns the target HIV-1 Env of isolate MGRM-D-003 (pseudovirus) (HIV-1).
For assay [40], the target named is HIV-1 Env of isolate MGRM-F1-021 (HIV-1).
The target in assay [41] is HIV-1 JR-CSF Env I414A (HIV-1 (isolate JR-CSF)) (UniProt P20871).
For assay [42], the target named is HIV-1 Env of isolate MGRM-F1-015 (HIV-1).

With 2G12 (antibody), the results for the neutralization IC50 in assay [1], in assay [3] and in assay [16] were 0.59 µg/mL, 0.56 µg/mL and 0.75 µg/mL, respectively. The IC50 (µg/ml), pseudovirus neutralization in assay [2] was 13.8 µg/mL; in [4], 4.84 µg/mL; in assay [6], above 50 µg/mL; in assay [8], 0.95 µg/mL; in assay [9] it was above 50 µg/mL; in assay [10], above 50 µg/mL. The IC50 (µg/ml), pseudovirus neutralization in assay [12] is above 50 µg/mL; in assay [14], above 50 µg/mL; in assay [15] it was 3.85 µg/mL. The IC50, pseudovirus neutralization in assay [5], in [7] and in assay [11] was above 50 µg/mL each time. This substance also gave an IC90 (neutralization of pseudovirus) in assay [13] of 6.23 µg/mL.

In the case of b12 (antibody), the neutralization IC50 in assay [1] is 49.1 µg/mL; in assay [3] it was above 50 µg/mL; in assay [16], 0.06 µg/mL. The IC50 (µg/ml), pseudovirus neutralization in [2] was 13.6 µg/mL; in [4], above 50 µg/mL; in assay [6], above 50 µg/mL; in [8], above 50 µg/mL; in assay [9], 1.51 µg/mL; in assay [10], above 50 µg/mL. The IC50 (µg/ml), pseudovirus neutralization in assay [12] is above 50 µg/mL; in assay [14], above 50 µg/mL; in assay [15], 1.93 µg/mL. In addition, the IC50, pseudovirus neutralization in assay [5] was 0.78 µg/mL; in assay [7], 0.07 µg/mL; in [11] it was above 50 µg/mL. In [13], this substance gave an IC90 (neutralization of pseudovirus) above 50 µg/mL.

For 1495_C14 (PGC14) (antibody), the neutralization IC50 in assay [1] was above 50 µg/mL; in [3] it was 28.6 µg/mL; in assay [16] it was 0.373 µg/mL. In addition, the IC50 (µg/ml), pseudovirus neutralization in assay [2] was above 50 µg/mL; in assay [4], 4 µg/mL; in assay [6], above 50 µg/mL; in assay [8] it was above 50 µg/mL; in assay [9], above 50 µg/mL; in assay [10], above 50 µg/mL. The IC50 (µg/ml), pseudovirus neutralization in assay [12] was above 50 µg/mL; in [14], above 50 µg/mL; in assay [15], 35 µg/mL. In addition, the IC50, pseudovirus neutralization in assay [5], in [7] and in assay [11] was above 50 µg/mL in each case.

For the substance PGT-142 (4995_E20) (antibody), the IC50, pseudovirus neutralization in assay [17] was above 50 µg/mL; in [18] it was 0.001 µg/mL; in assay [19] it was above 50 µg/mL; in assay [21] it was above 50 µg/mL. The substance also registered a 50% inhibitory concentration (IC50) in assay [20] above 50 µg/mL.

On to VRC01 (antibody), for which the IC50, pseudovirus neutralization in assay [17] was 0.452 µg/mL; in [23], 0.1 µg/mL; in [24] it was 0.117 µg/mL; in [25], 0.187 µg/mL; in assay [18], 0.056 µg/mL; in [19] it was 33.4 µg/mL. For the same substance, in [21], the IC50, pseudovirus neutralization turned out to be 0.216 µg/mL. The IC50, single-round pseudovirus neutralization in assay [22] was 1.13 µg/mL; in [26], above 50 µg/mL. This substance returned an IC50 in assay [20] of 0.031 µg/mL.

In the case of PGT-143 (4980_N08) (antibody), the IC50, pseudovirus neutralization in assay [17] is above 50 µg/mL; in assay [18] it was 0.001 µg/mL; in [19] it was above 50 µg/mL; in [21] it was above 50 µg/mL. Further, the concentration for half-maximal inhibition (IC50) in [20] was above 50 µg/mL.

Turning to PGT-145 (4995_P16) (antibody), the IC50, pseudovirus neutralization in [17] was above 50 µg/mL; in assay [18], 0.009 µg/mL; in assay [19] it was above 50 µg/mL; in assay [21], above 50 µg/mL. In assay [20], this substance registered an IC50 above 50 µg/mL.

As for 5343_B08 (PGT-135) (antibody), the IC50 (ug/mL), pseudovirus neutralization in assay [27] was above 10 µg/mL. The IC50, pseudovirus neutralization in [28] is above 50 µg/mL. In addition, the Fold IC50 increase relative to wild-type (pseudovirus neutralization) in [29] was above 75 fold; in assay [38] it was 1.4 fold; in [41], 1.2 fold. Besides, the IC50 (µg/mL), pseudovirus neutralization in assay [30] was above 50 µg/mL; in assay [31], above 50 µg/mL; in [32] it was above 50 µg/mL; in [33] it was 0.039 µg/mL; in assay [34], 21.1 µg/mL; in [35], above 50 µg/mL. Further, the IC50 (µg/mL), pseudovirus neutralization in [36] was above 50 µg/mL; in assay [37], above 50 µg/mL; in assay [39], above 50 µg/mL; in assay [40] it was 0.065 µg/mL; in assay [42] it was 1.11 µg/mL.

Regarding 5147_N06 (PGT-130) (antibody), the IC50 (ug/mL), pseudovirus neutralization in assay [27] was 0.0082 µg/mL. This substance returned an IC50, pseudovirus neutralization in assay [28] above 50 µg/mL. In addition, the Fold IC50 increase relative to wild-type (pseudovirus neutralization) was 1.2 fold in assay [29], 9.8 fold in assay [38] and 0.7 fold in assay [41]. The IC50 (µg/mL), pseudovirus neutralization in assay [30] is above 50 µg/mL; in assay [31], above 50 µg/mL; in assay [32], 0.935 µg/mL; in [33] it was 0.049 µg/mL; in [34], above 50 µg/mL; in [35], above 50 µg/mL. Also, the IC50 (µg/mL), pseudovirus neutralization in assay [36] is above 50 µg/mL; in assay [37], above 50 µg/mL; in assay [39] it was 0.651 µg/mL; in assay [40], above 50 µg/mL; in assay [42] it was above 50 µg/mL.

As to PGT-141 (4964_G22; 4993_K13) (antibody), the IC50, pseudovirus neutralization in assay [17] was above 50 µg/mL; in assay [18], 0.001 µg/mL; in [19], above 50 µg/mL; in [21], above 50 µg/mL. The substance further showed a 50% inhibitory concentration (IC50) in [20] above 50 µg/mL.

In the case of PGT-144 (4970_K22) (antibody), the IC50, pseudovirus neutralization was above 50 µg/mL in assay [17], 0.014 µg/mL in [18], above 50 µg/mL in assay [19] and above 50 µg/mL in assay [21]. The substance further gave an IC50 in [20] above 50 µg/mL.
